Values quoted from earlier work in US20100068187A1, “TRANSCRIPTION FACTORS FOR DIFFERENTIATION OF ADULT HUMAN OLFACTORY PROGENITOR CELLS” (priority 2006, published 2010).

B1: BDNF: brain-derived neurotrophic factor (protein, UniProt P23560 19-247, looked up)
Neurotrophic factor BDNF …: APMKEANIRGQGGLAYPGVRTHGTLESVNGPKAGSRGLTSLADTFEHVIEELLDEDQKVRPNEENNKDADLYTSRVMLSSQVPLEPPLLFLLEEYKNYLDAANMSMRVRRHSDPARRGELSVCDSISEWVTAADKKTAVDMSGGTVTVLEKVPVSKGQLKQYFYETKCNPMGYTKEGCRGIDKRHWNSQCRTTQSYVRALTMDSKKRIGWRFIRIDTSCVCTLTIKRGR
B2: GDNF: glial-derived neurotrophic factor (protein, UniProt P39905 78-211, looked up)
Glial cell line-derived …: SPDKQMAVLPRRERNRQAAAANPENSRGKGRRGQRGKNRGCVLTAIHLNVTDLGLGYETKEELIFRYCSGSCDAAETTYDKILKNLSRNRRLVSDKVGQACCRPIAFDDDLSFLDDNLVYHILRKHSAKRCGCI

Tested on: Human NSFCs
Conditions: incubated in the presence of neurotrophic factor

Molecule | neuronal differentiation of human NSFCs
B1 | refractory to neuronal differentiation
B2 | refractory to neuronal differentiation
